Patent publication US20180066058A1

How the values were obtained:
[1] = molecular target: human ICOS-mFc (Chimerigen) (human) (UniProt Q9Y6W8); test: HTRF neutralisation of Alexa 647 human B7-H2 binding to human ICOS-mFc; hamster IgG, run with the IgG4.PE mAbs; mean, n = 4
[2] = molecular target: mouse ICOS-mFc (Chimerigen) (mouse) (UniProt Q9WVS0); test: HTRF neutralisation of Alexa 647 mouse B7-H2 binding to mouse ICOS-mFc; hamster IgG, run with the IgG1 mAbs
[3] = molecular target: mouse ICOS-mFc (Chimerigen) (mouse) (UniProt Q9WVS0); test: HTRF neutralisation of Alexa 647 mouse B7-H2 binding to mouse ICOS-mFc; hamster IgG, run with the IgG4.PE mAbs; mean, n = 3
[4] = molecular target: mouse ICOS-mFc (Chimerigen) (mouse) (UniProt Q9WVS0); test: HTRF neutralisation of Alexa 647 mouse B7-H2 binding to mouse ICOS-mFc; hamster IgG, run with the IgG1 mAbs; mean, n = 3
[5] = molecular target: human ICOS-mFc (Chimerigen) (human) (UniProt Q9Y6W8); test: HTRF neutralisation of Alexa 647 human B7-H2 binding to human ICOS-mFc; hamster IgG, run with the IgG1 mAbs; mean, n = 4

Sequence of mouse ICOS-mFc (Chimerigen) (mouse) (Q9WVS0 21-141 limits assumed, change not shown): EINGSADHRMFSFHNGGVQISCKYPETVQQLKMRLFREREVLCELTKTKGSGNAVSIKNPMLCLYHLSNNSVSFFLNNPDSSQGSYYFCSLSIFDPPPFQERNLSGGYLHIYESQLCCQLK
Sequence of human ICOS-mFc (Chimerigen) (human) (Q9Y6W8 21-140, change not shown): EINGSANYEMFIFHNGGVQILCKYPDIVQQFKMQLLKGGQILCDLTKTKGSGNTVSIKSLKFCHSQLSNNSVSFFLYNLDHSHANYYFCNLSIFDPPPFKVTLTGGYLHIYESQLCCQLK

Anti-ICOS antibody C398.4A (hamster IgG)
IC50 [1]: 2.8 nM | IC50 [2]: 0.14 nM | IC50 [3]: 0.2 nM | IC50 [4]: 0.1 nM | IC50 [5]: 1.2 nM
